Values of other authors in publication PMC9866218, “Characterization and Chemical Synthesis of Cm39 (α-KTx 4.8): A Scorpion Toxin That Inhibits Voltage-Gated K^+ Channel KV1.2 and Small- and Intermediate-Conductance Ca^2+-Activated K^+ Channels KCa2.2 and KCa3.1” (Toxins, 2023).
Read-outs that look alike come from different tables or passages of the source.

Columns and labels:
[1] = target: KCa3.1 (Homo sapiens) (UniProt O15554)
[2] = target: KCa3.1 (Homo sapiens) (UniProt O15554); remark: listed apart in the source

Sequence of KCa3.1 (Homo sapiens) (O15554 whole entry): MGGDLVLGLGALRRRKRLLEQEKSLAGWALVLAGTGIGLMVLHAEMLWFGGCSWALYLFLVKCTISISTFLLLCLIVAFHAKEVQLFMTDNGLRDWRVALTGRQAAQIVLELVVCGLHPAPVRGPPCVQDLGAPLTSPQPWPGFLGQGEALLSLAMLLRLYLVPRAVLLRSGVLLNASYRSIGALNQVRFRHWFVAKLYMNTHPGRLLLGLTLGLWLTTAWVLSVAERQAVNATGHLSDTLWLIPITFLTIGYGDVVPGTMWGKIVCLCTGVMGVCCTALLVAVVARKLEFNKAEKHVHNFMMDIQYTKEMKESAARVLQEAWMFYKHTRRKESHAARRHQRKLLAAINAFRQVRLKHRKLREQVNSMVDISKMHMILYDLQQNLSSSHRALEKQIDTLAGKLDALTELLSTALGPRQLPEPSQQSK
Sequence of maurotoxin (MTX, α-KTx-6.2) (P80719 whole entry): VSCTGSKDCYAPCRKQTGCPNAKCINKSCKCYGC
Sequence of charybdotoxin (ChTx, α-KTx-1.1) (P13487 23-59): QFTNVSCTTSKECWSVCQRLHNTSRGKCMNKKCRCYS

| Substance | Kd [1] | Kd [2] |
| --- | --- | --- |
| charybdotoxin (ChTx, α-KTx-1.1) (from UniProt P13487) | 5 nM | – |
| maurotoxin (MTX, α-KTx-6.2) (from UniProt P80719) | – | 1 nM |
